Reference: patent US20160333110A1 (CHIOME BIOSCIENCE, published 2016)

T1: peptide No. 3 of Table 11 (SEQ ID NO: 211) (human)
T1 peptide: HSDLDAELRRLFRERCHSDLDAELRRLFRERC

T2: peptide No. 6 of Table 11 (SEQ ID NO: 214) (human)
T2 peptide: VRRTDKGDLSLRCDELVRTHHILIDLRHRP

T3: peptide No. 11 of Table 11 (SEQ ID NO: 219) (human)
T3 peptide: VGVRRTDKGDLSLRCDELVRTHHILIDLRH

T4: peptide No. 15 of Table 11 (SEQ ID NO: 223) (human)
T4 peptide: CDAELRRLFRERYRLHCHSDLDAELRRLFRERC

T5: peptide No. 21 of Table 11 (SEQ ID NO: 229) (human)
T5 peptide: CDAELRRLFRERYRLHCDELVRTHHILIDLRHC

T6: human TROP-1/EpCAM protein transiently expressed in CHO-K1 cells (human, UniProt P16422 24-314)
T6 construct: whole, on cells; also called human EpCAM/TROP-1; hEpCAM; not shown: C-terminal myc/His tag from pcDNA3.1-hEpCAM-myc/His
T6 sequence (looked up): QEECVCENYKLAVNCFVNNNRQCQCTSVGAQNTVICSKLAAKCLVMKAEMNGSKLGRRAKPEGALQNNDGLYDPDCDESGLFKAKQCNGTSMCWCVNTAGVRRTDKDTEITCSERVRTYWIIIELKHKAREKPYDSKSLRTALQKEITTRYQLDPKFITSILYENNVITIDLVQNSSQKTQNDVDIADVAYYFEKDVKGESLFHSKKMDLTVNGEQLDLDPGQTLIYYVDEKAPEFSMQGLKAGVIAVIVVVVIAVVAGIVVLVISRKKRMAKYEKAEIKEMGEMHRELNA

T7: recombinant protein of the hTROP-2 extracellular region (human, UniProt P09758 27-263)
T7 construct: produced with baculovirus, purified on Ni Sepharose; also called hTROP-2 EC; hTROP-2-EC-His; not shown: C-terminal myc-His tag from pcDNA4/myc-His A
T7 sequence: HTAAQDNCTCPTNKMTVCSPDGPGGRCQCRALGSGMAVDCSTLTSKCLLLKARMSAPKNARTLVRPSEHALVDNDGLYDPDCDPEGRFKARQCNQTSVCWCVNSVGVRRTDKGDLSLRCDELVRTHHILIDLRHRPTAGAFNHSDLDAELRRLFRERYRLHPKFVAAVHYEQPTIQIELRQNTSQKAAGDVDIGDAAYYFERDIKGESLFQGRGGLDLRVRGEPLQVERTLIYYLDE

T8: recombinant hTACSTD2-Fc-His protein (Creative BioMart) (human, UniProt P09758 27-274, limits assumed)
T8 construct: bought protein; also called hTROP-2 (low-density antigen-coated ELISA); not shown: Fc part of the bought fusion protein; not described; His tag
T8 sequence: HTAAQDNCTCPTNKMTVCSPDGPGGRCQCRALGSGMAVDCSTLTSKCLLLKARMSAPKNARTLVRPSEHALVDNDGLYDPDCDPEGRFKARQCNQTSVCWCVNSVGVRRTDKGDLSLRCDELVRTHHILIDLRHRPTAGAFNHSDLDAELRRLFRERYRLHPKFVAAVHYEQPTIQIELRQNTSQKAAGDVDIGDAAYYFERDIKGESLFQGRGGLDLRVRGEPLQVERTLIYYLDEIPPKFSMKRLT


What was measured:
[1] = biological target: T1, peptide No. 3 of Table 11 (SEQ ID NO: …); assay: PEPSCAN/CLIPS peptide ELISA, antibody 1 µg/mL
Method: (§1) 5034 types of the synthesized peptides were covalently bound to PEPSCAN cards (455 peptides/card), and the binding of the synthesized peptides to antibodies was then analyzed by the ELISA method. […] After washing, the resultant was allowed to react with a 1000-fold diluted peroxidase-secondary antibody complex at 25° C. for 1 hour. After washing, a substrate solution (a solution containing 2,2′-azino-di-3-ethylbenzthiazoline sulfonate (ABTS) and 2 μL of 3% hydrogen peroxide solution) was added to the reaction solution, followed by a chromogenic reaction for 1 hour. The binding activity of the antibodies was quantified by photographing with a CCD camera and then performing an image analysis.

[2] = biological target: T2, peptide No. 6 of Table 11 (SEQ ID NO: …); assay: PEPSCAN/CLIPS peptide ELISA, antibody 1 µg/mL
Method: as §1

[3] = biological target: T3, peptide No. 11 of Table 11 (SEQ ID NO: …); assay: PEPSCAN/CLIPS peptide ELISA, antibody 1 µg/mL
Method: as §1

[4] = biological target: T4, peptide No. 15 of Table 11 (SEQ ID NO: …); assay: PEPSCAN/CLIPS peptide ELISA, antibody 1 µg/mL
Method: as §1

[5] = biological target: T5, peptide No. 21 of Table 11 (SEQ ID NO: …); assay: PEPSCAN/CLIPS peptide ELISA, antibody 1 µg/mL
Method: as §1

[6] = biological target: T6, human TROP-1/EpCAM protein transiently …; assay: FACS on CHO-K1 cells transiently expressing human EpCAM/TROP-1
Text: Specifically, each of an expression vector (mouse TROP-2-pcDNA3.1(+), furnished by the Institute of Molecular and Cellular Biosciences, the University of Tokyo) comprising the full-length cDNA of a mouse TROP-2 gene (GenBank accession No. NM_020047, Y08830), and an expression vector (pcDNA3.1-hEpCAM-myc/His) comprising the full-length cDNA of a human TROP-1/EpCAM gene (GenBank accession No. NM_002354), was transiently introduced into CHO-K1 cells, using Lipofectamine2000 reagent (Invitrogen). Thereafter, 24 to 48 hours later, the cells were removed from a culture dish by treating them with trypsin, and a cell suspension was then prepared. The thus prepared cell suspension was successively reacted with the produced anti-hTROP-2 monoclonal antibody (0.1 μg) and with PE-labeled anti-mouse IgG, and it was then analyzed by FACSCalibur.

[7] = biological target: T7, recombinant protein of the hTROP-2 …; assay: antigen-coated ELISA, plate coated with 0.5 µg/ml hTROP-2 extracellular region
Method: Furthermore, antigen affinity was also examined by an ELISA method. ELISA was carried out using an ELISA plate which was coated with the recombinant protein of the hTROP-2 extracellular region as described in Example 3. Specifically, a 96-well plate (BD FALCON) was coated with a 50 μl/well recombinant protein of a hTROP-2 extracellular region that had been diluted with PBS to 0.5 μg/ml (at 4° C. overnight). Thereafter, the resultant was washed with a washing buffer (PBS containing 0.05% Tween 20), and a blocking buffer (PBS containing 2% skim milk and 0.05% Tween 20) was then added thereto (200 μl/well) to block it (at room temperature for 1 hour). The resultant was washed with a washing buffer. […] The obtained dilution samples were each added in an amount of 50 μl/well to the above-described ELISA plate (at room temperature for 2 hours). […] After the mixture had been washed with a washing buffer, a TMB (3,3′,5,5′-tetramethylbenzidine: SIGMA) substrate solution was added (50 μl/well) to the resultant to carry out a color reaction. Then, 1 M sulfuric acid (25 μl/well) was added to the reaction product to terminate the reaction. Using Microplate reader Model 550 (BioRad), an absorbance at 450 nm was measured with an absorbance at 655 nm used as a reference.

[8] = biological target: T8, recombinant hTACSTD2-Fc-His protein …; assay: low-density antigen-coated ELISA, plate coated with 0.1 µg/mL hTACSTD2-Fc-His, purified antibodies; K5-70 (parental antibody); low-density ELISA, 0.1 µg/mL hTROP-2 coat

Row | binding of 16-16 [1] | binding of 16-16 [2] | binding of 16-16 [3] | binding of 16-16 [4] | binding of 16-16 [5] | binding result [6] | EC50 [7] [µg/mL] | EC50 [8] [µg/mL] | Binder
1 | 714 | 670 | 601 | 566 | 527 | no binding (tested: 0.1 µg antibody) | 0.03 | – | anti-hTROP-2 monoclonal antibody clone T6-16 (antibody, mouse IgG2a, V domains shown, mouse IgG2a, hybridoma FERM BP-11346; also called T6-16 antibody) VH: EVQLQQSGPELVKPGASVKISCKASGYTFTDYNMHWVKQSHGKNLEWIGYIYPYNGGTGYNQRFKSRATMTVDKSSSTAYMELRSLTSDDSAVYYCAREDYGSSPSYAMDYWGQGTSVIVSS VL: DVVMTQTPLSLPVSLGDQASISCRSSQSLVHGNGNTYLHWYLQKPGQSPKLLIYKVSNRFSGVPDRFSGSGSGTDFTLKISRVEAEDLGVYFCSQTTHVPTFGSGTKLEIK
2 | – | – | – | – | – | no binding (tested: 0.1 µg antibody) | 0.027 | 0.0114 | anti-hTROP-2 monoclonal antibody clone K5-70 (antibody, mouse IgG2a, V domains shown, mouse IgG2a, hybridoma FERM BP-11251; also called K5-70 antibody; mouse K5-70 antibody) VH: QVQLQQPGAELVRPGASVKLSCKASGYTFTIYWINWVKQRPGQGLEWIGNIYPSDSYTNYNQKFKDKATLTVDKSSSTAYMQLSSPTSEDSAVYYCTRTSMADYWGQGTTLTVSS VL: DILLTQSPAILSVSPGERVSFSCRASQSIGTSIHWYQQRTNGSPRLLIKYASESISGIPSRFSGSGSGTDFTLSINSVESEDIADYYCQQSNSWPFTFGSGTKLEIK
